Test results: PMC12737591

Target: recombinant prefusion F protein of RSV (rpF5), ectodomain fused with a T4 fibritin foldon trimerization domain (respiratory syncytial virus, subgroup A2 | bacteriophage T4) (UniProt P03420)
Test: SDS-PAGE under reducing and non-reducing conditions; 10% gel, Coomassie blue staining; band of approximately 195 kDa under non-reducing and approximately 65 kDa under reducing conditions

Substance “recombinant prefusion F protein of RSV (rpF5), ectodomain fused with a T4 fibritin foldon trimerization domain (from UniProt P03420 26-513) (domain or fragment)” has a stoichiometry N of 3.
